The series can be described thus: soluble on expression in E. coli; label from the status in PepcDB or PDB records.
With “MNTYVAEIGEIVRSQRRDEEYIEDITERLSRVSKELLGQRTWIRWFPYLKSIASTLYYTSTVVLGNQTLGEEYVHLFESNGLERTVPSIPSRISFVLLHSAFPLISNYLIQKAESTLTHPSTESFLGIPIRKNQKARQSFLDVFFWLRTKLFPQLQRAHIALFYITGAYYSIARRFTGIRFLSASAHSDIPALKVYRFLGYITLIQLAVSIGISLYSFLEQEKFNNKLKKEKKENNGGSDRNLDENSLFHPTFQCSICLENKNPSALFCGHLFCWTCIQEHAVAATSSASTSSARCPQCRLEFQPRDPNNLRLLSTSTHPTIYFTGIQPTGIPHLGNFFGSIEPWTELQNSVDKNILMMLSVVDQHAISLGPLPANELRQNTHQMTASLIACGVDPNRTLLFRQSDVPQIAQISWILGSLQTTSKLARLPQYKEKKERFKKGDIPVGLLTYPLLQAADVLTFKATTVPVGEDQSQHLNLLGGLAYAFNKTYETEIFPIPKQLTRESHARIRSLREPEKKMSKSSGGPRSRIEITDSRSTIIEKCQKAQSDNAGKVTYDKENRLAVSNLLDLYSAVTKTQTSEIDFSNWTTLDLKMNLAEAVDKRLAPIRQKFEELQNTGEVDKVLTENGEKAREIAEKNLEEIRRTIGFL”, the “soluble on expression in E. coli” value is reported as “not soluble”. The same measure for “MNVDLHCHSTASDGALSPTALVARAHEYGVRVLSLTDHDTLEGLEEARTAAHSLGMQLVNGVELSCTWGGATIHVLGYGFDTQAPALTEAIARLHEGRWLRAEEISRKLAIKGMPGALEGARAIQQALGDSGNAPARPHFADFMVRAGFVKDRAEAFRKWLGAGKLGDVKQHWPTLEDTVATLRASGAWVSLAHPSHYDFTRSKRRKLVGDFVQAGGHAIEVVNGMQPADQVGTLAILAREFGLLVSAGSDFHGPGNWGEIGTYRPVPEDLPPLWCRF”: “soluble”; for “MNVLALDTSQRIRIGLRKGEDLFEISYTGEKKHAEILPVVVKKLLDELDLKVKDLDVVGVGIGPGGLTGLRVGIATVVGLVSPYDIPVAPLNSFEMTAKSCPADGVVLVARRARKGYHYCAVYLKDKGLNPLKEPSVVSDEELEEITKEFSPKIVLKDDLLISPAVLVEESERLFREKKTIHYYEIEPLYLQKSIAELNWEKKKRG”: “not soluble”; for “MNVLDEPDRLHGAHVPIRRGSVRQLQWWEPTPAERVRVLAWTCDCQARFYELCQSGGMVYIRRTVQKDPEPEISETHRWPVQEGWRVWFDLLTGEVR”: “not soluble”. On to “MNVTLLVADAVWSNIESTGSVTEEQLSILQLLFGKNLEKATRIIDKRGVKKISGLPSGRSIFQVVGESQKREEYLCFPGDYCGCYSFFYDVVSRGEHQCCKHQLAARLASSLGTYNEIEVSDDHLALMLSKI”, for which the “soluble on expression in E. coli” value is on record as “not soluble”.

As for “MNVVSNTQLLEQRIADFFTLSDEHKKARVLLDTLACSCPARIFGGMVRDLGLYGVDGFSSDLDIVIGRSREELFQTLAELPVKQLRFNKFGGIRFRYHDFEFDIWNLNETWAFQEKLIFCEDESSLLNEVA”, the “soluble on expression in E. coli” value is reported as “not soluble”. Turning to “MNWGEGEWNSFFHFFTKEFINMSESFKELFEQSIAGAQFYPGAIITAKVIDIDDDFVTLNAGLKSEGIVAVEEFYDKNGELEVKVGDTVEVALDSVEDGHGETLLSREKAKRQEAWRKLSKCHENNETVTGLISGKVKGGFTVEIGSIRAFLPGSLVDVRPVRDPSYLEGKELEFKVIKMDLKRNNIVVSRRAVVEEESSADRQALLESLHDGQELHGIVKNLTDYGAFIDLGGIDGLLHITDISWKRVKHPSEVLSVGQDVKVKVLSFDSERNRVSLGMKQLGNDPWVDLVERYPIGKRLQGKVTNITDYGCFVEIEEGVEGLVHMSEMDWTNKNVHPSKVVSLGDVVDVMVLEIDEERRRISLGMKQCVGNPWQQFASTHNKGEKVKGKIRSITDFGIFIGLDGDIDGLVHLSDISWTVPGEEAVKQFKKGQELEAVILAIDPERERISLGLKQLEGDSFASFAETYTKGSIVKGTVTAVEPKTVTVALAEDVSGTIRVSELSDERVDDATTIVKVGDEVEAKITNIDRKNRTISLSVKAKDAQDEADAIKKYSRTEAASTTLGDLLKEKMASKEGELEHHHHHH”, the “soluble on expression in E. coli” value is on record as “soluble”.

As to “MNYHSTNVNEIWDACLRILQDIVDERAYRTWFLPIIPVSIEGDTLTLQVPSQFFCEFLEGNFVEQLRTVLGRVIGPNASLQYNALVDNSSPKYPGTVTLAGCADGGQAAEQFDVNLLHRHM”, the “soluble on expression in E. coli” value is “not soluble”. In the case of “MNYILKQMLGGRQVIATHTCIGMDTDAFQNGRNLVTDTLEIYTGDLRKTLDTLSSIFHPSSFPLKSLRILDNADFKHPIIQGSLLLVVPNTENMHLISNKRVHARYFYYKDDVDFIINKWLDDGKEAGTHFSIGMFLTEDHVKEKYEEFLSTFEERVSWRTNYPPCFAINIDNFSEIVIGYEEFQQISTPEWRLNFKVQKREEFV” it was “not soluble”; in that of “MNYPVNPDLMPALMAVFQHVRTRIQSELDCQRLDLTPPDVHVLKLIDEQRGLNLQDLGRQMCRDKALITRKIRELEGRNLVRRERNPSDQRSFQLFLTDEGLAIHQHAEAIMSRVHDELFAPLTPVEQATLVHLLDQCLAAQPLEDI”, “soluble”; in that of “MPAILSRVAPRTFNLVGSRLMASAARLETVPREEIHKEYDRKKTFYHRDLEIQLAGPTQLKTKPLDPTKLKFGHTYADYMMTCDWDAERGWHHPKIEPIGELKIHPGAKVLHYASELFEGMKAYRGIDNKIRMFRPEMNMARMKRTALRAALPDFDSEEMINVLTELLRLDQEWVPNSDVCSLYLRPTLIGTDPTLGVGCATEAKMFVITGPVGAYYSTGFQPVSLLADSRFIRAFPGGVGAYKMGCNYAPTIWVGKEAASKNCQQVLWLYGENEDLTEVGTMNIFLFWKNEEGDMELITPPLHRGLILPGVTRDSLLELGREWGEYKVTERTLNMEEVKKALSEKRLYEMFGSGTACVVSPVGKILYHNKVTDEYEELHIPTMSSKFGVMQKFYNTINDIQYGRIIKDGWMRDI”, “not soluble”. “MPANARSHAVLTTESKVTIRGQTTIPAPVREALKLKPGQDSIHYEILPGGQVFMCRLGDEQEDHTMNAFLRFLDADIQNNPQKTRPFNIQQGKKLVAGMDVNIDDEIGDDE”: the “soluble on expression in E. coli” value is reported as “soluble”.

Turning to “MPAPLWSPSAERIAASRMEAFRRFVNQRHALGLVDYPALHAWSVQRREAFWQAIVDFFEVRFQQPPRAVLEEGAQMPSARWFPGATLNFAEHLLRRRDDAPALIAVSEDGRREVLSHAELARHVAGLQKRLAALGIGPGDRVAALMPNTWQTVVGMLATASLGATWSSCSPDFGTQGVIDRFGQIEPRVLIACAGYRYAGKSLDLTAKLNEVLAGLPGLEQLLVVPYDRPQAQPQDYRCQAQVALWDGFYQAEGEPVFTPVPFEQPLYILYSSGTTGVPKCIVHATGGVLLQHLKEHGLHTDLGDGDRLFYYTTCGWMMWNWLASGLAVGASLVLYDGSPFHPGPERLLDLIDAEDIAVFGASAKYLAALEKAGMRPRHSHRLDSLRTLLSTGSPLAHESFDYVYRELKSDLCLSSISGGTDIVSCFAIGNPVLPVWRGELQCKALGMAVEIWDDDGRRLASGKGELVCTRHFPSIPLGFWNDPDGTRFHDAYFASFPGVWAHGDYAEETVHGGLVIHGRSDAVLNPGGVRIGTAEIYRQVEKVEEVLESIAIGQDWQGDVRVLLFVRLRDGVRLDEPLRERIRQTIRANATPRHVPAKIIQVADIPRTLSGKIVELAVRNVIHGRPVKNTDALANPQALELYRDLAEL”, the “soluble on expression in E. coli” value is recorded as “not soluble”. In the case of “MPASEDYEGQVPAWCPGCGNFQILSTIKQALAELGIEPREVLLVSGIGQAGKLPHYIKCHTFNGLHGRTLPVATAAKLANHSLHVIAVAGDGDCYAEGGNHFLHAIRRNPNISLFVHNNQIYGLTKGQASPTSAKGTHTPAQPFGYLAHPFNPLALAISQDCSFVARGFAGDQEHLKELIKAAITHRGFSLLDILQPCVTFNKVNTFKWYRERVYRLESDYDPYNQTKAFEKALEWGDKIPNGIFYKSDKETLEEMMPTLHEMPLVRKKFSPEDVKHEIEKFY” it was “not soluble”.

For the origin of these results see the DeepSol protein solubility set.
